Experimental data published in the DeepSol protein solubility set.

experiment: soluble on expression in E. coli; label from the status in PepcDB or PDB records

Sequence	soluble on expression in E. coli
MERVNERREQNNPNGCCLRDEDFSQFNSEAFLRELAADLNEDDTNDLSSSLFATSRIPEEHIRSTGLVERAEHYNKSVDQRTMTDARIAFEEEQLKNGKSPNAGTSGMENLADSGTHVPRRGRGDYFGKLRSFENGVSFPSRPPLTSEHSSSGDSYFNNSHKTTPNYRRFANSNDSSRDNSQMEYKAENDASHTSQSSNRFGFNSQINRTDIHPPAARHTFNPAAAYNGKITPDFRFNYIPNAAVPAPSVVPVIATHPGVAPPSIVPSPIRIGQRYPKRPDNMPKPSSEPKHLNHNYYQIELYGATQEDRIAQRIEKTVRQTEAPVRRF	not soluble
MESKRLDNAALAAGISPNYINAHGKPQSISAETKRRLLDAMHQRTATKVAVTPVPNVMVYTSGKKMPMVVEGSGEYSWQLTTEEGTQYKGHVTGGKAFNLPTKLPEGYHTLTLTQDDQRAHCRVIVAPKRCYEPQALLNKQKLWGACVQLYTLRSEKNWGIGDFGDLKAMLVDVAKRGGSFIGLNPIHALYPANPESASPYSPSSRRWLNVIYIDVNAVEDFHLSEEAQAWWQLPTTQQTLQQARDADWVDYSTVTALKMTALRMAWKGFAQRDDEQMAAFRQFVAEQGDSLFWQAAFDALHAQQVKEDEMRWGWPAWPEMYKNVDSPEVRQFCEEHRDDVDFYLWLQWLAYSQFAACWEISQGYEMPIGLYRDLAVGVAEGGAETWCDRELYCLKASVGAPPDILGPLGQNWGLPPMDPHIITARAYEPFIELLRANMQNCGALRIDHVMSMLRLWWIPYGETADQGAYVHYPVDDLLSILALESKRHRCMVIGEDLGTVPVEIVGKLRSSGVYSYKVLYFENDHEKTFRAPKAYPEQSMAVAATHDLPTLRGYWESGDLTLGKTLGLYPDEVVLRGLYQDRELAKQGLLDALHKYGCLPKRAGHKASLMSMTPTLNRGLQRYIADSNSALLGLQPEDWLDMAEPVNIPGTSYQYKNWRRKLSATLESMFADDGVNKLLKDLDRRRRAAAKKK	not soluble
MESNNGIILRVAEANSTDPGMSRVRLDESSRRLLDAEIGDVVEIEKVRKTVGRVYRARPEDENKGIVRIDSVMRNNCGASIGDKVKVRKVRTEIAKKVTLAPIIRKDQRLKFGEGIEEYVQRALIRRPMLEQDNISVPGLTLAGQTGLLFKVVKTLPSKVPVEIGEETKIEIREEPASEVLEEGG	soluble
MESYLTVIEQNGQLLVDSREVAEMVGKRHTDLLRSIDGYVAILLNAKLRSVEFFLESTYKDATGRSLKHFHLTRKGCDMVANKMTGAKGVLFTAQYVSKFEEMEKALKARPSLIDTYLDMNEDERAIAYFTERKAKRELQEQLTLAEPKVEKYDRFLNTDGLMKIGQVAKAIGIKGMGQNNLFRFLRENKVLIDGTNKNAPYQKYVERGFFQVKTQETSVGIKTITLVTPKGADFIVDLLKKHGHKREIAS	not soluble
METATHYDLFIIGGGINGCGLARDAAGRGFKVGLAEMNDLASGTSSASTKLIHGGLRYLEYYEFRLVREALKEREIIWRMAPHIVRPLRFLLPYHKKLRPAWMLRFGLFIYDYLGNWNQKLWRSKTVNFSKSFCSILKEEYHKGFEYSDARVDDARLVIANARDAEKWGAVIKVRTEVLSLKSEEKKWVVILRDKLSGKESCVTASYVANMTGPWINHILSNVLDCKENPPVRLVRGSHILVPKLYAHDRAYIFQNGDGRILFSIPYQEEFTLLGTTDCGYQGDPADVHITDTEIDYICTAASEYFVQPVLRESIVWTYSGVRPLYDDGASKAQEITRDYVLKEMGTESTPRILNLYGGKITTYRKLAEDAMKFVEKALGKKGKPWTINSTLPGGDFPHNKLDTIENKIALLVPDLDAFTYRRLARSYGCEALMIFANGKADKGKNFGHGLYEVEVKWLMEKEWAKTCEDVLWRRSKLGLLFNKKEINALTAYMQKIQDNEQNS	not soluble
METCFANLDEQTKEKAKSILEQKKSGKLTHEQAKEELTKLGVKLPEKEKHEDIFAGLDEATKTKAKAILDNEKKQLEALNVDLPHHKFFMKKEDK	not soluble
METDLLDADECSENEKTLESIEKVFSASHLLVKILEFSSAQHRQKLYIAGSRSRQGDLKGFLDLRLVNQQFNEGVCIAVRKEFKHIQIDIDDNFVRCNYFTIGLHHKPPEPGNRENANVEGEDGNPVEEDEEMPAHEDLPSEDTEDVRFLVKFLRWLAGTFDPIVENFKVFDSWSFKPCSLPPSWADRLTVFISMHPDMEYCNCEQCIRIARNCKESFGPLSFRMVEDALRDQNISYGALTFTDAFLADIAIAYTISIDNRDRFDANRFIRDFGGIRVDELTFAVQTLATYRDERPKPQPLEVLQLILRLWEAKTVEFEIVKFMENDYYLQRCAWERSGAFTLAHFATYSFQHFDEFVHVVPYKFSGTLDRDLRNEIMPIFDLRIDPSEGPLRMGSNLSLLSLASQNNENSTFTWINQGRIAFNMFRANHYMFITSGIVEFRGMLGTANWLKFTIRDMMRSTWGPRGSNVTERGKTVYWINFMEDVGDCIQIVWSEHAKELLETNFPNLVVTMNSSHAFRNCSNRRAATYNDSKRPDVQKKPINTFYCTFYDSVRNNTTHMKLIQIAN	not soluble
METEVMKSFNNELSSLFDSKNMSKNKIQDITKAAIKAKSQYKHVVFSVEKLINKCKPDQRLNVLYVIDSIVRASKHQLKEKDTFGPRFMKQFDKFLMPLLKCGQKEKMRTVRTLNLWMSNKVFKESEIQPLREMCKASGLTIDFEEVELAVKGKQADMSIYSGVYKKKPKRSSSSSQPKSRTPTNPHPDDGLLGAGPSSALRSVPDIPNFVLSEDYFLGTISEREMLELVQKFGIDRSGVLSKDKNLLQRALQIFAGSLSQKVEEVLAENNRINGSSIQNVLTKDFEYSDDEEEKEKEPQPEKQKNLPHAQVLLLAQSLLTQPQILAKLAEVLIPQGNPFGLPFPGEHIVPTSSAALTLGAPPPNLMALQQSLPPGFPNQQLGLPNLSGLNQAQLMNVQNAQNMLQLQQRAAQLQALQGNPNAQRNLLMLGNPLLNPFALQHGVNPMLNDLQAAAAAQQQAMLNEAAQSPEKKILELSGGNSGINNSGDVERARLREKEKERESKERRRMGLPPVRIGFTIIASRTLWLKKIPTNIVENDLKQAVESCGEASRVKVIGNRACAYITMENRRSANDVVSKMREVSVAKKMVKVYWARSPGMDSDQFSDLWDSNRGVLEIPYEKLPLDLVALCEGAMLDIESLPIEKKLLYKETGETVISIPPPNIQPPVPHPPPMGFPFQHQLTQLPGQPRPAGLPPGVPPMFNLNAPPPPGIPGYPPAPPPPGVGPPPPQGIPPMGFDPNKPPPPMFQQGFNAGAPPPPFGRGAGPMSSFPPPPRGGMHHMPPPPSFRGGRGGHGGPPPPHFDRRGGGGPPFRPENGRGRLLDQSEMWNREQREMRGGGGAGRDGGREHRDYDRDRSQIDRRRQDDMGARRRSRWGDDDRRDDDRRDDRRDDRRESRRRSPRSPRSPDRRTRRSPSYEREEPPVKKTSVEEETVSSTTLDELKPSVEPTPVPAPIPAPAPELKAAEEPVKIVAEHHEDQTDEVPMDLE	not soluble
METHEKIRLMRELNKWSQEDMAEKLAMSAGGYAKIERGETQLNIPRLEQLAQIFKIDMWDLLKSGGGGMVFQINEGDSGGDIALYASGDVSMKIEFLKMELKHCKEMLEQKDKEIELLRKLTETV	not soluble
METIKSVDIYELGSPGEKSSPWSSTILIVKLTSSNGNIGYGEAPTTFMTLPVKESMREVERVFKDQNYFNIEKNMREFYKHSFYLSRSMEATSALSAFEIASWDLIGKDLGTPVYNLLGGEYNSELRAYANGWYSDCLEPDDFVSRAKEYIKKGYTAFKFDPFRNNFDRIGNDGIKKAVDIVSAMRSELGENIDLLIECHGRFSTKYAIKVGQALDEFNPLFIEEPIHPEMELGLFDFKRYVNTPVALGERLLNKEDFARYISQGMVDIVQADLTNSKGILEAKKISAIVESFGGLMAFHNAFGPVQTAATLNVDYTLTNFLIQESFEDSWPDWKRNLFSGYRIENGHFKLSGKPGLGITADEKLMEKLIYDGMEEFNKNEPSWVVSGTYK	not soluble
METPKGTIIFTTVGRTHYGFDVFSLNIATSVERRLTDGVSVNFNAQFVNDKSDDVVFVSERNGSARIYKTRSGISKPEQIPGAPESYFHDRPIITQNNRLYFISAHEQPDRYFKNWSALYTVELNSAKREVTRVTPPDTADFSPAVSQSGDFLAVASYGTRSWGGEFHEINTDITVFKASKPETRVVICERGGWPTWSGDSTVFFHHQADDGWWSIFRVDIPENFTEYTDFPITPIRVTPSGLHCFTPAAFRDGKRIALATRRRGVNHRHIEIYDLENTTFQPVTESLNPSFHHYNPFVSPDSEFLGYHRFRGESTQGESIVPNIESIVSPIKTLRLLRINGSFPSSSPNGDLIALNSDFDINGGIKVSKSDGSKRWTLIKDRTAFYNSWSPTERHVIYTSLGPIFSPARIAVQIARIKFDPSDLTADKEDLPCDVKILTLENTGNNAFPSCSPDGKSIVFRSGRSGHKNLYIVDAVNGESNGGGIRRLTDGPWIDTMPCWSPKGDLIGFSSNRHNPENTAVFGAYVVRPDGTGLRRIQISGPEGSEEAARERVNHVSFNKDGDWLVFAANLSGVTAEPVTMPNQFQPYGDLYVVKLDGTGLRRLTWNGYEDGTPTWHTADELDLSQLNLNGQDGDKLEGQFEEPLWISCDI	soluble
METRTAENTAIFMCKCCNLFSPNQSELVTHVSEKHGEEGVNVDDVIIPLRPLNTPENPNPSKGGDEFLVMKRKRGRPKGSTKKPSTEEEVVENLVSPSEDGPLATEEGSRLAPSSLECSKCCRKFSNTRQLRKHICIIVLNLGEEDGDAGNESDLDLEKTYKEDDREKASKRPRAQKTEKVQKISGKEAGQLSGAKKPIISVVLTAHEAIPGATKIIPVEAGPPETGAPPPETTAADLVPRRGYQEYAIQQTPYEQPMKSSRLGPTQLKIFTCEYCNKVFKFKHSLQAHLRIHTNEKPYKCSQCSYASAIKANLNVHLRKHTGEKFACDYCSFTCLSKGHLKVHIERVHKKIKQHCRFCKKKYSDVKNLIKHIRDMHDPQDKKVKEALDELRLMTREGKRQLLYDCHICERKFKNELDRDRHMLVHGDKWPFACELCGHGATKYQALELHVRKHPFVYVCALCLKKFVSSIRLRSHIREVHGAAQETLVFTSSINQSFCLLEPGGDIQQEALGDQLQLAAEEFVCPEIDVRKEEACPGEAQPEVGLRELVVPGDAHAPPPGPLATPQSESSSLSPCKLETTVVSSDLNSLGVVSDDFLLKSDTSSAEPPAAAEATSDTQHRDSAQTQGEEVTLLLAKAKSAGPDPESSPGGRQKVGALPASESDSSTCLRANPTEASDLLPTVTDGGDLGVCQPDSCTPSSEHHPGSTAFMKVLDSLQKKQMNTSLCERIRKVYGDLECEYCGKLFWYQVHFDMHVRTHTREHLYYCSQCHYSSITKNCLKRHVIQKHSNILLKCPTDGCDYSTPDKYKLQAHLKVHTELDKRSYSCPVCEKSFSEDRLIKSHIKTNHPEVSMNTISEVLGRRVQLKGLIGKRAMKCPYCDFYFMKNGSDLQRHIWAHEGVKPFKCSLCEYATRSKSNLKAHMNRHSTEKTHLCDMCGKKFKSKGTLKSHKLLHTSDGKQFKCTVCDYTAAQKPQLLRHMEQHASFKPFRCAHCHYSCNISGSLKRHYNRKHPNEEYTNVGSGELAAEALIQQGGLKCPVCSFVYGTKWEFNRHLKNKHGLKVVEIDGDPKWEPAAETPEEPSTQYLYITEAEDVQGTQAAVAALQDLRYTSESGDRLDPTAVNILQQIIELGSETHDAAAVASVVAMAPGTVTVVKQVTDEEPSSNHTVMIQETLQQASVELAEQHHLVVSSDDVEGIETVTVYTQGGEASEFIVYVQEAVQPVEEQVGEQPAPEL	soluble
